Assays:
[1] = test system: biotinylated NIF binding to human neutrophils; test: Inhibition of biotinylated NIF binding to neutrophils
Protocol: 100 μg of rNIF were labeled with sulfo-NHS-Biotin as described above. rNIF binding to resting or stimulated human neutrophils (pretreated with 10^−6 M f-met-leu-phe, for 15 minutes at 37° C., then washed) was measured. Increasing amounts of biotinylated rNIF in the absence or presence of 100-fold molar excess of unlabeled rNIF were incubated on ice for one hour with 1×10^6 neutrophils in VBSG^++ in a total volume of […]. Cells were then washed and incubated with phycoerythrin-coupled avidin (Sigma Chemical Co.) under similar conditions, washed again, fixed in 1% paraformaldehyde in PBS, and analyzed using FACScan (Becton Dickinson Co., Mountain View, Calif.). Mean channel fluorescence for each sample was then expressed as a function of the amount of biotinylated rNIF used. Background binding of phycoerythrin-streptavidin alone to neutrophils was subtracted (2.8 fluorescent units). Specific binding was obtained by […], and the values plotted according to Scatchard (Ann. N.Y. Acad. Sci. 51:660, 1949). To determine the effect of unlabeled fluid-phase-r11bA or GST on rNIF binding to neutrophils, each was preincubated at varying concentrations with biotinylated rNIF (20 ng/ml, final concentration) for 15 minutes on ice before addition of the mixture to neutrophils. The effect of mAbs on biotinylated NIF binding to neutrophils was assessed by preincubating the neutrophils with 100 μg/ml of each mAb at 4° C. for 15 minutes before addition of biotinylated NIF (20 ng/ml). The incubation then continued for one hour, followed by processing of cells for FACS analysis as described below.

[2] = target: T1, EAiC3b (erythrocytes coated with iC3b) (Homo sapiens, UniProt P01024); test: Erythrocyte binding assay, EAiC3b on immobilized proteins or peptides
T1 construct: EAiC3b (erythrocytes coated with iC3b) were generated by treating EAC3b with purified human factors H and I; tissue Sigma Chemical Co. (C5-deficient human serum); host or cells: human serum C3 deposited on IgM-coated erythrocytes
Protocol: (§1) Erythrocytes (E) coated with rabbit anti-E IgM (EA) or C3b (EAC3b) were prepared as described by Dana et al. (J. Immunol. 73:153, 1984). EAiC3b (erythrocytes coated with iC3b) were generated by treating EAC3b with purified human factors H and I, or alternatively prepared from EA using C5-deficient human serum (Sigma Chemical Co., St. Louis, Mo.). EAiC3b cells were washed and stored in isotonic veronal-buffered saline (VBS^2+), pH 7.4, containing 0.15 mM calcium-1 mM magnesium (MgCl2+CaCl2) and 1 mg/ml Soybean Trypsin Inhibitor (STI; Worthington Biochemical Co., Freehold, N.J.) at 1.5×10^8 cells/ml. EA, EAC3b or EAiC3b were labeled with 5-(and-6)-carboxy fluorescein (Molecular Probes, Eugene, Oreg.) as described by Michishita et al. (Cell 72:857, 1993).
Immobilization of recombinant proteins and peptides: Purified recombinant A-domain was added to Immulon-2 96-well microtiter plates (Dynatech) overnight. Wells were then washed once with phosphate-buffered-saline, pH 7.4 without metals, and blocked with 1% BSA at room temperature (RT) for one hour, followed by two washings with buffer A (composed of 60% GVBS:VBS^2+ mixed in a 1:3 ratio; Arnaout et al., in Complement Receptor Type 3 at 602-615, Academic Press, FL) containing 1 mM MnCl2 or MgCl2+CaCl2. All the peptides were stocked at 1 mg/ml in water and similarly adsorbed to Immulon-2 96-well plates. Binding of the anti-CD11b mabs to the coated rA-domain was measured by ELISA and read using a plate reader (Molecular Dynamics).
Erythrocyte binding assays: Fluoresceinated EAiC3b, EAC3b or EA were resuspended to 1.5×10^8/ml in buffer A, and added […] to wells containing immobilized proteins or peptides in a total volume of […]. The plates were then briefly centrifuged to settle the erythrocytes, and allowed to incubate at 37° C. for 15 minutes in a humidified incubator with 5% CO2. For the inhibition studies, E were preincubated with each recombinant protein or pure peptide in the presence of 2% BSA for 5 minutes at RT and added to wells coated with immobilized protein or peptide without washing, unless otherwise indicated. At the end of the binding reactions, wells were washed, examined briefly by light microscopy then solubilized with 1% SDS-0.2 N NaOH. Fluorescence was quantified (excitatory wavelength, 490 nm, emission wavelength, 510 nm) using a SLM 8000 fluorometer (SLM Instruments, Urbana, Ill.). In experiments where the effects of individual divalent cations were measured, Ca^2+ and Mg^2+ were replaced with metal-free buffers or with buffers containing each cation at […], unless otherwise indicated. The effect of temperature was evaluated in the presence of 1 mM MnCl2 at 37° C. and at 4° C.

EAC3b = EAC3b (Homo sapiens, UniProt P01024); test: Erythrocyte binding assay, EAC3b on immobilized protein
Protocol: as §1, with “EA, EAC3b or EAiC3b were labeled with 5-(and-6)-carboxy fluorescein (Molecular Probes, Eugene, Oreg.) as described by Michishita et al. (Cell 72:857, 1993).” left out
Immobilization of recombinant proteins and peptides: Purified recombinant A-domain was added to Immulon-2 96-well microtiter plates (Dynatech) overnight. […] Binding of the anti-CD11b mabs to the coated rA-domain was measured by ELISA and read using a plate reader (Molecular Dynamics).
Erythrocyte binding assays: Fluoresceinated EAiC3b, EAC3b or EA were resuspended to 1.5×10^8/ml in buffer A, and added […] to wells containing immobilized proteins or peptides in a total volume of 100 ml. […] Fluorescence was quantified (excitatory wavelength, 490 nm, emission wavelength, 510 nm) using a SLM 8000 fluorometer (SLM Instruments, Urbana, Ill.). […] The effect of temperature was evaluated in the presence of 1 mM MnCl2 at 37° C. and at 4° C.

[3] = target: CR3 (CD11b/CD18) expressed by normal human neutrophils (Homo sapiens, UniProt P11215); test: EAiC3b binding to adherent neutrophils (CR3); type: cell-based
Protocol: Purification and adherence of human neutrophils: Neutrophils were purified as described by Boyum et al. (Scand. J. Clin. Lab. Med. 97(suppl.):77, 1968), resuspended in divalent-cation-free Tris-HCl-saline buffer, pH 7.4 at 5×10^7/ml and kept on ice until used. Neutrophils (2×10^5 cells/well) were allowed to adhere to 96-well plates in Iscov's Modified Medium for one hour at 37° C., in a humidified incubator with 5% CO2. The wells were then washed, and […] of fluoresceinated EAiC3b or EA (at 1.5×10^8/ml) were added in the presence of 3% BSA, in a total volume of […], followed by 15 min incubation at 37° C. with 5% CO2. Wells were then washed and fluorescence quantified as described above.
The ability of A7 to inhibit EAiC3b binding to CR3 (CD11b/CD18) expressed by normal human neutrophils was measured under conditions similar to those used in assessing EAiC3b binding to rA-domain. EAiC3b binding to neutrophils is primarily mediated by CR3, but can also occur in vitro through complement receptor type 1 (CR1). The effect of A7 on EAiC3b binding was tested in nearly isotonic conditions and in the presence of blocking concentrations of a polyclonal anti-CR1 antibody (Ross et al., J. Exp. Med. 158:334, 1983). […] These findings indicate that A7 is the major site in CR3 responsible for its interaction with iC3b.

gelatin = test: A domain binding to gelatin

T1 sequence (P01024 749-1303 limits assumed): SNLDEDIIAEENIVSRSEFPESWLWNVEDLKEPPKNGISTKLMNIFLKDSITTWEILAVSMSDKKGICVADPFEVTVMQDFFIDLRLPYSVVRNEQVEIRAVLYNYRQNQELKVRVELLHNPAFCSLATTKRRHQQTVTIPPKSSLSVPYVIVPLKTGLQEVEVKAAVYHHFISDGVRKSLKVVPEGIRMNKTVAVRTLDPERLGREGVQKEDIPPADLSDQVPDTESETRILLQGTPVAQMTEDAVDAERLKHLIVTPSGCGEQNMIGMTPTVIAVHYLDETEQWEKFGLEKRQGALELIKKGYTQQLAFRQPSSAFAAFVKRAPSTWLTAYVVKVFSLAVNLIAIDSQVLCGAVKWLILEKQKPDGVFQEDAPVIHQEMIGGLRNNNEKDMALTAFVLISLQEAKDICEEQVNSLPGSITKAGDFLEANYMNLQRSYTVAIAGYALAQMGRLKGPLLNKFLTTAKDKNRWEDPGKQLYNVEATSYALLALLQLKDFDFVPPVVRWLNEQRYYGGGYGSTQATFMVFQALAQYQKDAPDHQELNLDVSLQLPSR
T1 sequence (P01024 23-667 partner limits assumed): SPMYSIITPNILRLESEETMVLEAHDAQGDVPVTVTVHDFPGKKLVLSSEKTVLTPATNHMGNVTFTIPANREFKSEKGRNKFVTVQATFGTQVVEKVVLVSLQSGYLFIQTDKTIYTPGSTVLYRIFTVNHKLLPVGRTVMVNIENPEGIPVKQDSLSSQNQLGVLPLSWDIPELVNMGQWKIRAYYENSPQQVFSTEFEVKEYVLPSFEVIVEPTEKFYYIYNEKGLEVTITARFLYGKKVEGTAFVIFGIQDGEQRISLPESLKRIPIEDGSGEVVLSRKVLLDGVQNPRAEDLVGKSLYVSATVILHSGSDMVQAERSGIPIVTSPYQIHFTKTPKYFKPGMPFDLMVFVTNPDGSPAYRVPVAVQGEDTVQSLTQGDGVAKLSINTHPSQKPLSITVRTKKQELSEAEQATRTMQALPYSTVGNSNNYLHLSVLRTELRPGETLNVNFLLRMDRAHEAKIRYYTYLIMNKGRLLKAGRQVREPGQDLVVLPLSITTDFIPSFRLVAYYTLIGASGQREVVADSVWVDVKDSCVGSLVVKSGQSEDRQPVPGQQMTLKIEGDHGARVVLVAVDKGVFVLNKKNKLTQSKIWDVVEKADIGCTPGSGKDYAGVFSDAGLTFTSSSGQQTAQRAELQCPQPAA
T1 sequence (P01024 1321-1663 partner limits assumed): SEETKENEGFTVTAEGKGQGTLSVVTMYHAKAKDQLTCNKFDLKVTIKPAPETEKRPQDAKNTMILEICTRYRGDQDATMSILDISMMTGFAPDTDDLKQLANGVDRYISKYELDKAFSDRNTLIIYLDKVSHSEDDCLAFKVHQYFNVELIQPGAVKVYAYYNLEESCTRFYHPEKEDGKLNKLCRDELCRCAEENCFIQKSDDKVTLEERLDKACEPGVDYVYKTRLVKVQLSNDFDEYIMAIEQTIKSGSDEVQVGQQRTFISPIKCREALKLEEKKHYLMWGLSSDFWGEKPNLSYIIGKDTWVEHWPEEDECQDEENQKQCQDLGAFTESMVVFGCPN
Sequence of EAC3b (P01024 749-1663 limits assumed): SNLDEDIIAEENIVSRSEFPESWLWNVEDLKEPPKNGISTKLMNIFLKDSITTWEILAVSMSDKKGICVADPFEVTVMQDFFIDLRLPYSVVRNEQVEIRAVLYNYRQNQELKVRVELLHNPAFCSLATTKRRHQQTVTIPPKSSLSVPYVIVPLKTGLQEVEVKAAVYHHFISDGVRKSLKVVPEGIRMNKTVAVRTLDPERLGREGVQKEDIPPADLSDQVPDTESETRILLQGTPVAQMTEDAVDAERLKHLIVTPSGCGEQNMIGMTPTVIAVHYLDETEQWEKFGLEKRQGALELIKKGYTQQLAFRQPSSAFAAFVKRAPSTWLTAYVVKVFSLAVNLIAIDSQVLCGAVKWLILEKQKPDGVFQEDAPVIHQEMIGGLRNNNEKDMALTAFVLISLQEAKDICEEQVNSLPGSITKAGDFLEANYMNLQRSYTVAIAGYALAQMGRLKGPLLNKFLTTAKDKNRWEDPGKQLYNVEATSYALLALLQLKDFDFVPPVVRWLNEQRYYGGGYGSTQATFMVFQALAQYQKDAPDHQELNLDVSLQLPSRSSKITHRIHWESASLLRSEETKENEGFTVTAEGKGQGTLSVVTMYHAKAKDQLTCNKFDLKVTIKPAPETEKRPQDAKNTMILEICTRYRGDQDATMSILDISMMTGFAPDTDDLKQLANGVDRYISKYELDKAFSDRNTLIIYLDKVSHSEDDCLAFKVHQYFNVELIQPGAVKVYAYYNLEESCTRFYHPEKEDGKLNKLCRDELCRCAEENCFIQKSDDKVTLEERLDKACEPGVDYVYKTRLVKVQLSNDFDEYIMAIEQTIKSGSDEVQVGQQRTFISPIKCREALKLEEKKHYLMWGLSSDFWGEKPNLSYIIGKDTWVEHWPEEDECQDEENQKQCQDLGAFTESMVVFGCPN
Sequence of EAC3b (P01024 23-667 partner limits assumed): as the sequence (P01024 23-667 partner limits assumed) above

r11bA: recombinant human CD11b A domain (Cys128 to Glu321), expressed as GST fusion protein, used as such or after thrombin cleavage
concentration range inhibiting NIF binding to leukocytes [1]: low nM range
effect of fluid-phase protein on biotinylated rNIF binding to human neutrophils ([1]; dose dependent): abolished
IC50 ([1]; fluid-phase protein, read-out: half-maximal inhibition of biotinylated rNIF binding to human neutrophils): ~1 nM
binding of the A domain to iC3b [2]: binds
EAiC3b binding to rA-domain with MnCl2, MgCl2 or MgCl2 plus CaCl2 ([2]; 1 mM MnCl2, 1 mM MgCl2 or 1 mM MgCl2 and 0.15 mM CaCl2): supported
temperature dependency of EAiC3b binding to rA-domain ([2]; 37° C. and 4° C., 1 mM MnCl2): temperature-independent
direct binding of EAiC3b to immobilized protein or peptide ([2]; 37° C., divalent cations): bound
EAiC3b binding to rA-domain with CaCl2 alone ([2]; CaCl2 alone (0.15-1 mM)): ineffective
EAiC3b binding to rA-domain, divalent cations omitted or EDTA included ([2]; no divalent cations or EDTA): No specific binding
binding of EAC3b to immobilized protein (EAC3b): not
concentrations required for inhibition of iC3b binding to leukocytes [3]: micromolar concentrations
binding of the A domain to gelatin (gelatin): binds

Reference: patent US20050227296A1, “Method for indentifying integrin antagonists” (The General Hospital Corporation, a Massachusetts …, priority 1988, published 2005)
